# No end group written: not given here.
# Target: human atypical chemokine receptor 3 (ACKR3) (human, UniProt P25106 1-362)
# Assay: binding competition with CXCL12-AF647, flow cytometry
# Chain of human atypical chemokine receptor 3 (ACKR3) (P25106 whole entry): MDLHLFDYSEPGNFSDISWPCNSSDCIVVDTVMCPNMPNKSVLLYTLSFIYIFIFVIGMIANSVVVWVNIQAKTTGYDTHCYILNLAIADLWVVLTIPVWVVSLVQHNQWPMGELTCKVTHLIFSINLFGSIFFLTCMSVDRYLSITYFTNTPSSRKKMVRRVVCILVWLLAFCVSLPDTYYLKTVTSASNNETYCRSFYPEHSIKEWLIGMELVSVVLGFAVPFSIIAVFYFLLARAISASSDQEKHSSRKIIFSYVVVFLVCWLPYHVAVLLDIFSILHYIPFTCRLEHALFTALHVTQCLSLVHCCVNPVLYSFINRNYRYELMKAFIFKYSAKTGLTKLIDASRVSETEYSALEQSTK
row,Binder,IC50 [nM]
1,YGGFMRRVGRPEWWMDYQKRYG [BAM22],32.7
2,GGFLRRIRPKLK-NH2 [dynorphin 2-13 (SEQ ID NO: 20; NH2-substituted at C-terminus)],20900
3,"H-FGGFMRRK-NH2 [LIH383, octapeptide FGGFMRRK (SEQ ID NO: 3; NH2-substituted at C-terminus)]",4
4,"YGGFMRRV-NH2 [adrenorphin, YGGFMRRV (SEQ ID NO: 32; NH2-substituted at C-terminus)]",49
5,YGGFLRRIRPKLKWDNQ [dynorphin A],82.7
6,GGFLRRIRPKLKWDNQ [dynorphin 2-17 (SEQ ID NO: 19)],11100
7,YGGFLRRQFKVVT [dynorphin B],465
8,FGGFTGARKSARK-NH2 (also: reduced peptide bond ψ(CH2-NH) between Phe1 and Gly2) [Phe1ψ(CH2-NH)-Gly2-Nociceptin-1-13 amide (SEQ ID NO: 13; NH2-substituted at C-terminus)],> 10000
